Assay results published in patent US20170002055A1, “Novel peptides and combination of peptides for use in immunotherapy against ovarian cancer and other cancers” (immatics biotechnologies GmbH, priority 2015, published 2017).

Target: HLA-A*02:01 (Homo sapiens, UniProt P04439, D140Y/D185E/D98H/E176V/E277Q/G131W/G231S/I119V/I121R/I166T/I218V/L300P/L318F/N151K/N90K/P208A/P217A/Q86G/Q94H/R138H/R169H/T345S)
Assay: MHC binding assay (UV-ligand exchange, β2m ELISA, peptide exchange yield)
Conditions: MHC class I binding score; binding to HLA-A*02:01 ranged by peptide exchange yield (UV-ligand exchange, β2m ELISA)
Description: Candidate peptides for T cell based therapies according to the present invention were further tested for their MHC binding capacity (affinity). The individual peptide-MHC complexes were produced by UV-ligand exchange, where a UV-sensitive peptide is cleaved upon UV-irradiation, and exchanged with the peptide of interest as analyzed. Only peptide candidates that can effectively bind and stabilize the peptide-receptive MHC molecules prevent dissociation of the MHC complexes. To determine the yield of the exchange reaction, an ELISA was performed based on the detection of the light chain (β2m) of stabilized MHC complexes. The assay was performed as generally described in Rodenko et al. (Rodenko et al., 2006).
96 well MAXISorp plates (NUNC) were coated over night with 2 ug/ml streptavidin in PBS at room temperature, washed 4× and blocked for 1h at 37° C. in 2% BSA containing blocking buffer. […] Peptide-MHC monomers of the UV-exchange reaction were diluted 100 fold in blocking buffer. Samples were incubated for 1h at 37° C., washed four times, incubated with 2 ug/ml HRP conjugated anti-β2m for 1h at 37° C., washed again and detected with TMB solution that is stopped with […]. Absorption was measured at 450 nm. Candidate peptides that show a high exchange yield (preferably higher than 50%, most preferred higher than 75%) are generally preferred for a generation and production of antibodies or fragments thereof, and/or T cell receptors or fragments thereof, as they show sufficient avidity to the MHC molecules and prevent dissociation of the MHC complexes.

Substance | Peptide exchange
177 (YLLPEEYTSTL; listed as Homo sapiens) [compound 177] | “++++” (≧75% = ++++)
178 (ALTEIAFVV; listed as Homo sapiens) [compound 178] | “++++” (≧75% = ++++)
179 (KVLNELYTV; listed as Homo sapiens) [compound 179] | “+++” (≧50 = +++)
180 (FQIDPHSGLVTV; listed as Homo sapiens) [compound 180] | “++” (≧20% = ++)
181 (LLWAGTAFQV; listed as Homo sapiens) [compound 181] | “+++” (≧50 = +++)
182 (MLLEAPGIFL; listed as Homo sapiens) [compound 182] | “+++” (≧50 = +++)
183 (FGLDLVTEL; listed as Homo sapiens) [compound 183] | “+++” (≧50 = +++)
184 (YLMDINGKMWL; listed as Homo sapiens) [compound 184] | “+++” (≧50 = +++)
185 (FLIDDKGYTL; listed as Homo sapiens) [compound 185] | “++” (≧20% = ++)
186 (TLFFQQNAL; listed as Homo sapiens) [compound 186] | “++” (≧20% = ++)
187 (RQISIRGIVGV; listed as Homo sapiens) [compound 187] | “+++” (≧50 = +++)
188 (GLFPVTPEAV; listed as Homo sapiens) [compound 188] | “+++” (≧50 = +++)
189 (ALQRKLPYV; listed as Homo sapiens) [compound 189] | “+++” (≧50 = +++)
190 (FLSSLTETI; listed as Homo sapiens) [compound 190] | “+++” (≧50 = +++)
192 (KMLDGASFTL; listed as Homo sapiens) [compound 192] | “+++” (≧50 = +++)
193 (QLLDADGFLNV; listed as Homo sapiens) [compound 193] | “+++” (≧50 = +++)
194 (ALPLFVITV; listed as Homo sapiens) [compound 194] | “+++” (≧50 = +++)
195 (GLFADLLPRL; listed as Homo sapiens) [compound 195] | “+++” (≧50 = +++)
196 (YLYSVEIKL; listed as Homo sapiens) [compound 196] | “++++” (≧75% = ++++)
197 (ALGPEGGRV; listed as Homo sapiens) [compound 197] | “++” (≧20% = ++)
200 (LLFGSVQEV; listed as Homo sapiens) [compound 200] | “+++” (≧50 = +++)
201 (RLVDYLEGI; listed as Homo sapiens) [compound 201] | “+++” (≧50 = +++)
202 (ALLDQQGSRWTL; listed as Homo sapiens) [compound 202] | “+++” (≧50 = +++)

Substance | Peptide exchange
204 (KIAENVEEV; listed as Homo sapiens) [compound 204] | “++” (≧20% = ++)
205 (SLYPGTETMGL; listed as Homo sapiens) [compound 205] | “+++” (≧50 = +++)
206 (VLQEGKLQKLAQL; listed as Homo sapiens) [compound 206] | “+++” (≧50 = +++)
207 (GLTSTNAEV; listed as Homo sapiens) [compound 207] | “++” (≧20% = ++)
208 (KISPVTFSV; listed as Homo sapiens) [compound 208] | “+++” (≧50 = +++)
209 (KLIESKHEV; listed as Homo sapiens) [compound 209] | “++” (≧20% = ++)
210 (LLLNAVLTV; listed as Homo sapiens) [compound 210] | “++” (≧20% = ++)
211 (LLWPGAALL; listed as Homo sapiens) [compound 211] | “++” (≧20% = ++)
212 (ALWDQDNLSV; listed as Homo sapiens) [compound 212] | “++” (≧20% = ++)
214 (FLLDLDPLLL; listed as Homo sapiens) [compound 214] | “+++” (≧50 = +++)
216 (NLWEDPYYL; listed as Homo sapiens) [compound 216] | “+++” (≧50 = +++)
217 (ALIHPVSTV; listed as Homo sapiens) [compound 217] | “++” (≧20% = ++)
218 (SALEELVNV; listed as Homo sapiens) [compound 218] | “++” (≧20% = ++)
219 (KLSDIGITV; listed as Homo sapiens) [compound 219] | “+++” (≧50 = +++)
220 (LLQKFVPEI; listed as Homo sapiens) [compound 220] | “++” (≧20% = ++)
221 (ALYEEGLLL; listed as Homo sapiens) [compound 221] | “++” (≧20% = ++)
222 (NLIENVQRL; listed as Homo sapiens) [compound 222] | “++” (≧20% = ++)
223 (ALLENIALYL; listed as Homo sapiens) [compound 223] | “+++” (≧50 = +++)
224 (TLIDAQWVL; listed as Homo sapiens) [compound 224] | “+++” (≧50 = +++)
225 (SLLKVLPAL; listed as Homo sapiens) [compound 225] | “+++” (≧50 = +++)
226 (MLYVVPIYL; listed as Homo sapiens) [compound 226] | “++” (≧20% = ++)
227 (ALMNTLLYL; listed as Homo sapiens) [compound 227] | “++” (≧20% = ++)
228 (AMQEYIAVV; listed as Homo sapiens) [compound 228] | “++” (≧20% = ++)

Continued, values first:

Peptide exchange | Substance
“++” (≧20% = ++) | 229 (RLPGPLGTV; listed as Homo sapiens) [compound 229]
“+” (≧10% = +) | 230 (ILVDWLVEV; listed as Homo sapiens) [compound 230]
“++” (≧20% = ++) | 231 (FLSPQQPPLLL; listed as Homo sapiens) [compound 231]
“++” (≧20% = ++) | 232 (ALLEAQDVELYL; listed as Homo sapiens) [compound 232]
“++” (≧20% = ++) | 233 (VLSETLYEL; listed as Homo sapiens) [compound 233]
“++” (≧20% = ++) | 234 (ALMEDTGRQML; listed as Homo sapiens) [compound 234]
“++++” (≧75% = ++++) | 235 (YLNDLHEVLL; listed as Homo sapiens) [compound 235]
“+++” (≧50 = +++) | 236 (GLLEAKVSL; listed as Homo sapiens) [compound 236]
“++++” (≧75% = ++++) | 237 (ALLEASGTLLL; listed as Homo sapiens) [compound 237]
“+++” (≧50 = +++) | 238 (YLISFQTHI; listed as Homo sapiens) [compound 238]
“+++” (≧50 = +++) | 239 (AAFAGKLLSV; listed as Homo sapiens) [compound 239]
“+++” (≧50 = +++) | 240 (ILLEQAFYL; listed as Homo sapiens) [compound 240]
“+++” (≧50 = +++) | 241 (SLVEVNPAYSV; listed as Homo sapiens) [compound 241]
“+++” (≧50 = +++) | 243 (LLLNELPSV; listed as Homo sapiens) [compound 243]
“+++” (≧50 = +++) | 244 (SLFGGTEITI; listed as Homo sapiens) [compound 244]
“+++” (≧50 = +++) | 245 (SMIDDLLGV; listed as Homo sapiens) [compound 245]
“+++” (≧50 = +++) | 246 (LLWEVVSQL; listed as Homo sapiens) [compound 246]
“+++” (≧50 = +++) | 248 (FLFPNQYVDV; listed as Homo sapiens) [compound 248]
“+++” (≧50 = +++) | 249 (LLDGFLVNV; listed as Homo sapiens) [compound 249]
“+++” (≧50 = +++) | 250 (ALSEEGLLVYL; listed as Homo sapiens) [compound 250]
“++” (≧20% = ++) | 251 (ALYTGFSILV; listed as Homo sapiens) [compound 251]
“+++” (≧50 = +++) | 252 (LLIGTDVSL; listed as Homo sapiens) [compound 252]
“++” (≧20% = ++) | 253 (GLDAATATV; listed as Homo sapiens) [compound 253]
“+++” (≧50 = +++) | 254 (TLLAFIMEL; listed as Homo sapiens) [compound 254]
“+++” (≧50 = +++) | 255 (VLASYNLTV; listed as Homo sapiens) [compound 255]
